# Data: paper PMC9586334 (Proceedings of the National Academy of Sciences of the …, 2022)
# Positions of bridges follow the written chain, without caps; N, C: chain ends. lipid anchor = not defined here
# T1: FhuA, outer membrane TonB-dependent transporter of E. coli (mature part, His10-TEV construct) (E. coli, UniProt P06971 34-747)
# T1 construct: FhuA of E. coli, the mature part, amplified from E. coli genomic DNA; No TEV cleavage is told for the SEC and cryo-EM samples; also called wild-type FhuA; free FhuA; source: E. coli Bl21 (DE3) Δcyo, alone or co-overexpressed with Llp, purified (IMAC, SEC, in detergent)
# T1 sequence (looked up): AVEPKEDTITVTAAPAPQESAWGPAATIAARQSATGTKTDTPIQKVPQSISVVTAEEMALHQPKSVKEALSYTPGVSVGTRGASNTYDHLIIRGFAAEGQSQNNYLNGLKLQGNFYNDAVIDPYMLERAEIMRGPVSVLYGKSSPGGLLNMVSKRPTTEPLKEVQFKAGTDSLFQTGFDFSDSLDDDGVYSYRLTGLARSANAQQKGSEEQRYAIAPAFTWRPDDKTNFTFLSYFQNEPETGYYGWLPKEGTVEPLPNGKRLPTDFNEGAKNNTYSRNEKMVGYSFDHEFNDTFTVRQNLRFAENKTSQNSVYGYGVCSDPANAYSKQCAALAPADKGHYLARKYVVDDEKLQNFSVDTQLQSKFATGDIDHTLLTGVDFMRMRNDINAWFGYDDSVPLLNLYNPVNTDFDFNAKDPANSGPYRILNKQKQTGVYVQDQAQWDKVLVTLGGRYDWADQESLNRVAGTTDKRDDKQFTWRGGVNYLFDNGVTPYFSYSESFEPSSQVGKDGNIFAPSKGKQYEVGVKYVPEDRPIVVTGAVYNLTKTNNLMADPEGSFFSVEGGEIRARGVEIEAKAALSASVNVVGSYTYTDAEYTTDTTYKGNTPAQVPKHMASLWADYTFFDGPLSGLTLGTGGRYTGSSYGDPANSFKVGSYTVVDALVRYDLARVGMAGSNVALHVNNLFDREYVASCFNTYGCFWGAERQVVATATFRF
# B1: Llp, superinfection exclusion lipoprotein of bacteriophage T5 (natural protein, UniProt Q38162 16-77, looked up)
# chain: C(lipid anchor)STFGPKDIKCEAYYMQDHVKYKANVFDRKGDMFLVSPIMAYGSFWAPVSYFTEGNTCEGVF
# modifications: disulfide 11-58; reading uncertain
# notes: Llp of bacteriophage T5, codon-optimized synthetic gene in the arabinose-inducible vector pB22; Lipoprotein; also called lytic conversion protein; SE lipoprotein; source: E. coli Bl21 (DE3) Δcyo, alone or co-overexpressed with FhuA, purified from membranes (IMAC, SEC, in detergent)
# Molecular target: T1, FhuA, outer membrane TonB-dependent …
# Experiment: SEC; complex assembled in vivo by co-overexpression in E. coli, purified by IMAC and then gel filtration (Superdex-200, 10 mM Hepes, 100 mM NaCl, 0.05% LDAO, pH 7.5); fractions on SDS-PAGE
# Conditions: partners not purified
binder,measurement,value
B1,binding result,binds
